The target in the test is VEGF:Flk-1 complex (VEGF associated with sFlk-1) (human; mouse) (UniProt P15692). The experiment in a line: capture ELISA; biotinylated sFlk-1 complexed with VEGF titrated onto antibody-coated wells; concentration giving 50% maximal binding; * extrapolated value.
VEGF:Flk-1 complex (VEGF associated with sFlk-1) (human; mouse), sequence (P15692 other isoform, or with tags, fused parts or gaps limits assumed, chain 1 of 2): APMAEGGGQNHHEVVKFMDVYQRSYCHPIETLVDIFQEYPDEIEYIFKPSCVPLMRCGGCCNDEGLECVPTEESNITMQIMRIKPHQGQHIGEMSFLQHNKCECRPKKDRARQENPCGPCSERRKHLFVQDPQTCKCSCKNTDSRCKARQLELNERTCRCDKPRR
VEGF:Flk-1 complex (VEGF associated with sFlk-1) (human; mouse), sequence (P35918 20-762 limits assumed, chain 2 of 2, further chain): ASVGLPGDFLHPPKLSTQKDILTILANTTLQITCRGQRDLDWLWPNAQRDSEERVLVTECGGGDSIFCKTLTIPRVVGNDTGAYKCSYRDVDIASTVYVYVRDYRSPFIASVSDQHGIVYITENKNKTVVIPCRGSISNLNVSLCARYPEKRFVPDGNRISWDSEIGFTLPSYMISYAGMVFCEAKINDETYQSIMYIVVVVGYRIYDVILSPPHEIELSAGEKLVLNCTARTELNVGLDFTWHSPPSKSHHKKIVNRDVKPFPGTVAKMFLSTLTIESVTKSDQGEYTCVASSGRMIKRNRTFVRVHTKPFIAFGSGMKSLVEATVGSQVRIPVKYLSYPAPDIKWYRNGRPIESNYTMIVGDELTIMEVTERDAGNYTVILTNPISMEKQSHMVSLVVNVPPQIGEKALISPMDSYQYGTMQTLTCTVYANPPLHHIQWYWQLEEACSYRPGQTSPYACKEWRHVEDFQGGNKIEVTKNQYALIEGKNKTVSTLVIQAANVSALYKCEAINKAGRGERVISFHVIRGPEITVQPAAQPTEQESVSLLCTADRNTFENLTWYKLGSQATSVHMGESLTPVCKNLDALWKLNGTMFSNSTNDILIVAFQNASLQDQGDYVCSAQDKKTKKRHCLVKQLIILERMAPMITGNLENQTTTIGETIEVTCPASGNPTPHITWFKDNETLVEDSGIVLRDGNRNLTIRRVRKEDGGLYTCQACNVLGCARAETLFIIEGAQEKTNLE

A4.6.1 (mouse anti-human VEGF monoclonal antibody from Genentech), sequence (VH): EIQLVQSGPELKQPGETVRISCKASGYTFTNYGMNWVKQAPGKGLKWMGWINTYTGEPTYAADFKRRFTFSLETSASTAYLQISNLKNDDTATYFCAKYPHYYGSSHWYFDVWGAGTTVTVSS
A4.6.1 (mouse anti-human VEGF monoclonal antibody from Genentech), sequence (VL): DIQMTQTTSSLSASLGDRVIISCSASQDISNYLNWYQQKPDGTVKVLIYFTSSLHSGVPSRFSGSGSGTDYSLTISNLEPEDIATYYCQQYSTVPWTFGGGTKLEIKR

By EC50 is commonly meant the concentration that produces a half-maximal response. On to “A4.6.1 (mouse anti-human VEGF monoclonal antibody from Genentech)”, for which the half-maximal effective concentration (EC50) was 500 nM.

These data come from patent US6342219.
